Laboratory results published in US6596504B2, “Treatment of prophylaxis of diseases caused by pilus-forming bacteria” (Washington University, priority 1993, dated 2003).
“Also recorded” adds a separate entry of the source.

How the values were obtained:
PapD [1] = molecular target: T1, PapD (Escherichia coli, UniProt P15319); assay: Soluble inhibition ELISA: PapD binding to G1′-19′WT-coated wells; design: species or system E. coli; conditions: 25-fold molar excess of peptide, 100 pmol/well PapD, compared to water
T1 construct: (A) NAME/KEY: mat_; made in house; Lindberg et al. 1989
T1 sequence (P15319 22-239): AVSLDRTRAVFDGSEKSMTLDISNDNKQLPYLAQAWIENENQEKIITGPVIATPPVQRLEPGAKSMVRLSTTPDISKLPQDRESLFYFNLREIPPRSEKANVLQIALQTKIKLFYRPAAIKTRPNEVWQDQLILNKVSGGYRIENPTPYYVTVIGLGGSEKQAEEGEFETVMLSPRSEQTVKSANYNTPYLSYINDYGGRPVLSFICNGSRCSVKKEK
Description: Microtiter wells were coated overnight at 4° C. with 50 μl of 2,5 pmol/50 μl of the G1′-19′WT peptide. The wells were washed with PBS and blocked with 3% bovine serum albumin (BSA). A 25-fold molar excess of each test peptide was pre-incubated with 100 pmoles PapD for 30 min. and the PapD-peptide solution was then added to the coated wells and incubated at 25° C. for 45 min in the presence of 3% BSA/PBS. The subsequent primary antibody, secondary antibody and developing steps are described above. The ability of the peptides to inhibit binding of PapD to the G1′-19′WT peptide was calculated by dividing the amount of PapD binding in the presence of peptide with the amount of PapD binding in the presence of water. 0% inhibition includes values where binding was greater than that of PapD pre-incubated with H2O.

PapD [2] = molecular target: T1, PapD; assay: Protection of PapD against trypsin cleavage by peptides; type: biochemical, E. coli; conditions: preincubation with 20-fold molar excess of peptide
Description: A Lower: The rate of trypsin cleavage of PapD decreased upon preincubation with the G1′-19′WT, G1′-16′WT or K1′-19′WT peptides, but the G2′-21′amide peptide had no effect. 50 μg of purified PapD was preincubated for 15 min at 25° C. with a 20-fold molar excess of G1′-19′WT, G1′-16′WT, K1′-19′WT or G2′-21′amide peptides (any trypsin cleavage sites in these peptides occur at their amino termini where they were predicted not to interfere with PapD), or an equivalent volume of water. Each sample was then incubated at 37° C. with 3.2 μg of trypsin. Aliquots were removed after 0, 5, 10, 20, 30 and 40 min and boiled in SDS-PAGE sample buffer to stop the digestion. The samples were applied to 15% SDS-PAGE gels and the amount of full-length PapD remaining was determined by densitometry of Coomassie blue stained bands corresponding to full-length PapD which are shown.
400 μg of PapD was partially digested by incubation with either 4,5μg trypsin or 0.45 μg chymotrypsin on PBS for 20 min. at 37° C. The PapD digests were applied to a C-18 HPLC column (Beckman) and 2 major fragments were eluted with a 0-100% acetonitrile gradient in 0.01% trifluoroacetic acid. The PapD fragments were identified by their molecular weight on SDS-PAGE and amino-terminal sequencing. The N-terminal amino acid sequences of the approximately 14 kDa tryptic and chymotryptic fragments were identified as residues 100-108 and 104-109 of PapD, respectively, corresponding to cleavage after Lys-99 (for trypsin) and Leu-103 (for chymotrypsin). The N-terminal sequences of the 11 and 12 kDa bands in the digests were identical to the N-terminal sequence of PapD.

PapD [3] = molecular target: T1, PapD; assay: ELISA: PapD binding to peptides coated on microtiter wells; design: species or system E. coli; conditions: for reduction of binding of PapD to the immobilized peptide: compared with G1′-19′WT peptide; for binding of PapD to immobilized peptide: peptide coated on microtiter wells, ELISA with anti-PapD antiserum
Description: FIG. 1: PapD binds to pilus subunit-related peptides coated in ELISA microtiter plates and in solution. A and B: The peptides from Table 1 were coated on microtiter wells and tested for their ability to bind to PapD in an ELISA assay described in example 2. Water insoluble peptides were dissolved in 2.5% acetic acid (AA) which had no effect on the binding of G1′-19′WT to PapD in this assay. Each group represents the average of duplicate wells.
5 mg/ml stock solutions of peptides in water or 50% acetic acid were diluted to a concentration of 2.5 pmol/50 μl in PBS. 50 μl of the peptide solution was coated overnight onto microtiter wells (Nunc-Immuno Plate Maxisorp) at 4° C. The solutions in the plates were discarded, and the wells were blocked with 200 μl 3% bovine serum albumin (BSA, Sigma) in PBS (120 mM NaCl/2.7 mM KCl/10 mM phosphate buffer salts, pH 7.4) for 2 hours at 25° C. The plates were washed vigorously 3 times with PBS and incubated with 50 μl of the indicated amount of purified PapD (Lindberg et al, 1989). After 3 washes with PBS, the wells were incubated with a 1:500 dilution of anti-PapD rabbit antiserum (Lindberg et al, 1989) in 3% BSA/PBS for 45 min. at 25° C. After 3 washes with PBS, the wells were incubated with a 1:1000 dilution of goat anti-rabbit IgG coupled to alkaline phosphatase (Sigma) in 3% BSA/PBS for 45 min. at 25° C. Following 3 washes with PBS and 3 washes with developing buffer (10 mM diethanolamine pH 9.5, 0,5 MM MgCl2), 50 μl filtered p-nitrophenyl phosphate substrate (Sigma) in developing buffer (10 mg/ml) was added. The absorbance at 405 nm was read after 60 min of incubation in the dark at 25° C.

PapD-PapG complex = molecular target: T2, PapD-PapG complex (Escherichia coli, UniProt P15319); assay: Reconstitution assay: restoration of PapD-PapG complex from reduced, denatured PapD-PapG; type: binding, E. coli; conditions: PapD preincubated with peptide
T2 construct: (A) NAME/KEY: mat_; made in house
T2 sequence (P15319 22-239): T1 sequence (P15319 22-239)
Description: B: PapD incubated with the G1′-19′WT, G1′-16′WT, K1′-19′WT, and G2′-21′amide was added to reduced, denatured PapD-PapG and the amount of PapD-PapG complex restored in each sample was quantitated as described in example 2. The % inhibition represents the amount of the PapD-PapG complex restored with peptide-treated PapD compared to the amount of PapD-PapG complex restored with untreated PapD. The graph represent the average of 4 experiments. PapD and PapD-PapG complex were prepared as described in F. Lindberg et al, J. Bacteriol. 171, 6052 (1989) and S. J. Hultgren et al., Proc. Natl. Acad. Sci. USA 86, 4357 (1989).
FIG. 7: Ability of PapD Arg-8, Lys-112 and Thr-7 mutants to bind PapG and restore the PapD-PapG complex in vitro. 0.4 μg of PapD-PapG complex was reduced and denatured as described in FIG. 2B. The denatured PapD-PapG complex was then diluted with 0-630 ng purified wild type (WT) or mutant PapD. The amount of PapD-PapG restored in the samples was determined as in FIG. 2B and was graphed as a percentage of the greatest amount of PapD-PapG restored. The values graphed represent the average of 3 experiments. Wild type and mutant PapD and the PapD-PapG complex were purified as described in F. Lindberg et al, J. Bacteriol. 171, 6052 (1989) and S. J. Hultgren et al., Proc. Natl. Acad. Sci. USA 86, 4357 (1989).
The PapD-peptide solution was then added to the reduced, denatured PapD-PapG, incubated at 25° C. for 10 min, and applied to an IEF 3-9 gel (Pharmacia). The amount of PapD-PapG restored in each sample was quantitated by densitometry of the silver stained IEF band corresponding to the pI of the DG complex.

PapD [4] = molecular target: T1, PapD; assay: ELISA: inhibition by peptides of PapD binding to MBP-G1′-140′ fusion protein; design: species or system E. coli; conditions: PapD preincubated with peptide at 1:25 ratio; preliminary results
Description: Stock solutions of MBP-G1′-140′ proteins in PBS were diluted to 0.1 μM with PBS. The wells of microtiter plates were coated with 50 μl of the protein solutions overnight at 4° C. The wells were washed with PBS, and blocked with 200 μl of 3bovine serum albumin (BSA) in PBS for 2 hours at 25° C. The plates were washed vigorously three times with PBS and incubated with 50 μl of 1-5 μM PapD proteins in […]-PBS for 45 minutes at 25° C. The PapD was preincubated with each of the peptides at a 1:25 ratio for 30 min before being added to the wells. After three washings with PBS, the wells were incubated with a 1:500 dilution of rabbit anti-PapD antiserum in BSA-PBS for 45 minutes at 25° C. After three washings with PBS, the wells were incubated with a 1:1000 dilution of goat antiserum to rabbit IgG coupled to alkaline phosphatase in 3BSA-PBS for 45 minutes at 25° C. After three washings with PBS and three washings with developing buffer (10 mM diethanolamine, 0.5 mM MgCl2), 50 μl filtered 1 mg/ml p-nitrophenyl phosphate in developing buffer was added, the reaction was incubated for 1 hour or longer if necessary in the dark at 25° C., and the absorbance at 405 nm was read.

[5] = Water solubility of peptides; type: physicochemical

Substance	binding of PapD to immobilized peptide (PapD [3])	inhibitory power on binding of PapD to MBP-G1′-140′ (PapD [4])	further results
NH2-EEGKRKPGELSGSMTMVLSF-CONH2 (H-EEGKRKPGELSGSMTMVLSF-NH2) [G2′-21′amide]	reduced binding of PapD	–	% Inhibition (PapD [1]): 0%; rate of trypsin cleavage of PapD (PapD [2]): had no effect and not; reduction of binding of PapD to the immobilized peptide (PapD [3]): approximately 75%; inhibition of restoration of the PapD-PapG complex by PapD (PapD-PapG complex): has no effect
G1′-8′: octameric peptide from the C-terminus of PapG (MTMVLSFP)	–	significantly higher inhibitive effect; also recorded: significantly more potent	–
NH2-GKRKPVELSGSMTMVLSSP-COOH (H-GKRKPVELSGSMTMVLSSP-OH) [G1′-19′SV]	–	–	reduction of binding of PapD to the immobilized peptide (PapD [3]): 36%
NH2-GKRKPGELSGSMTMVLSFP-COOH (H-GKRKPGELSGSMTMVLSFP-OH) [G1′-19′WT]	bound well	–	rate of trypsin cleavage of PapD (PapD [2]): decreased; also recorded: reduced the rate of tryptic cleavage of PapD; inhibition of restoration of the PapD-PapG complex by PapD (PapD-PapG complex): inhibit restoration of the PapD-PapG complex
NH2-YALAPNAVIPTSLALL-COOH (H-YALAPNAVIPTSLALL-OH) [MS, random hydrophobic peptide, reference compound]	no binding	–	% Inhibition (PapD [1]): 1%
NH2-KSVVPGDYEATATFELTYR-COOH (H-KSVVPGDYEATATFELTYR-OH) [K1′-19′WT]	tight binding	–	rate of trypsin cleavage of PapD (PapD [2]): decreased; also recorded: reduced the rate of tryptic cleavage of PapD; binding of PapD to immobilized peptide (PapD [3]; listed as PapK): moderately; inhibition of restoration of the PapD-PapG complex by PapD (PapD-PapG complex): inhibit restoration of the PapD-PapG complex
NH2-GILNGGDFQTTASMAMIYN-COOH (H-GILNGGDFQTTASMAMIYN-OH) [F1′-19′WT]	moderately	–	–
NH2-KKLEAGNYFAVLGFRVDYE-COOH (H-KKLEAGNYFAVLGFRVDYE-OH) [H1′-19′ WT]	no binding	–	–
G1′-6′: length series of peptides from the C-terminus of PapG, 6 residues (MVLSFP)	–	less active inhibitory peptides	–
H-QNLIAGPFSATATLVASYS-OH [E1′-19′WT, NH2-QNLIAGPFSATATLVASYS-COOH]	moderately	–	–
NH2-KPGELSGSMTMVLSFP-COOH (H-KPGELSGSMTMVLSFP-OH) [G1′-16′WT]	binds	significantly more potent	rate of trypsin cleavage of PapD (PapD [2]): decreased; also recorded: reduced the rate of tryptic cleavage of PapD; inhibition of restoration of the PapD-PapG complex by PapD (PapD-PapG complex): inhibit restoration of the PapD-PapG complex
G1′-4′: 4 C-terminal amino acid residues of PapG (numbering of b394) (LSFP)	–	–	% Inhibition (PapD [1]): 0%
NH2-GKRKPGELSGSMTMVLSFP-CONH2 (H-GKRKPGELSGSMTMVLSFP-NH2) [G1′-19′ amide]	did not affect binding to PapD	–	–
H-TMVLSFP-OH [G1′-7′WT, NH2-TMVLSFP-COOH]	does not bind	less active inhibitory peptides	solubility [5]: limited solubility
H-SGSMTMVLSFP-OH [G1′-11′WT, NH2-SGSMTMVLSFP-COOH]	binds	significantly more potent	–
